Like-named read-outs stand apart in the source and are kept apart here.
B1: anti EpCAM scFv fusion to the LC alone of OKT3 Fab (bispecific antibody)
heavy: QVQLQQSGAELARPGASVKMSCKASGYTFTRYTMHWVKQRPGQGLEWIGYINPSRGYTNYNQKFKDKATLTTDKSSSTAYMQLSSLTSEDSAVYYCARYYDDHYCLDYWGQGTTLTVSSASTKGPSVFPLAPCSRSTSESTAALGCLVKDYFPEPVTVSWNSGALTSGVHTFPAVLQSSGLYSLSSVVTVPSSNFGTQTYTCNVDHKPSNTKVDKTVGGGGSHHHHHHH
light: QVQLQQSGGGLVQPGGSLRLSCAASGFTFSNYWMSWVRQAPGKGLEWVANIKQDGSEKFYVDSVKGRFTISRDNAKNSLYLQMNSLRAEDMAVYYCARVGGAWELGYWGQGTLVTVSAGGGGSGGGGSGGGGSGAQSVLTQPPSVSGAPGQRVTISCTGSSSNIGSYYGVHWYQQIPGTAPKLLIYSDTNRPSGVPDRFSGSKSGTSASLAITGLQAEDEADYYCQSYDSSLSGRVFGGGTKVTVLGRAQIVLTQSPAIMSASPGEKVTMTCSASSSVSYMNWYQQKSGTSPKRWIYDTSKLASGVPAHFRGSGSGTSYSLTISGMEAEDAATYYCQQWSSNPFTFGSGTKLEINRTVAAPSVFIFPPSDEQLKSGTASVVCLLNNFYPREAKVQWKVDNALQSGNSQESVTEQDSKDSTYSLSSTLTLSKADYEKHKVYACEVTHQGLSSPVTKSFNRGEC
notes: also called EpCAM1.1×OKT3 Fab fusion, LC only
B2: anti EpCAM scFv fusion to both HC and LC of OKT3 Fab (bispecific antibody)
heavy: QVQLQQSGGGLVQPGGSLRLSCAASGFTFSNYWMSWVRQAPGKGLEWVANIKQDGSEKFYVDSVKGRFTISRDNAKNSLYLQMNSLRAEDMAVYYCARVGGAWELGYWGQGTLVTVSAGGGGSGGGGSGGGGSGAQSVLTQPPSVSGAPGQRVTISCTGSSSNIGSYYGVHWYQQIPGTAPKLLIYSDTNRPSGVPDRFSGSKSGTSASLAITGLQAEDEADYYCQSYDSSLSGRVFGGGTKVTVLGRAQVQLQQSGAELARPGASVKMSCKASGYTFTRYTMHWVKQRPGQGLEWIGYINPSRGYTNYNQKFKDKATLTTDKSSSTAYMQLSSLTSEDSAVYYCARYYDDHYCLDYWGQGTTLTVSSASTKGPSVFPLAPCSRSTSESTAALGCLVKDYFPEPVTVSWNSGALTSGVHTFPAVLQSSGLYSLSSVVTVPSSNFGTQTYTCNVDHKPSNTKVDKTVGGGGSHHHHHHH
light: B1 light
notes: also called EpCAM1.1×OKT3 Fab fusion, HC and LC
B3: EpCAM2.2-(L)-hu-1F3.1 Fab (bispecific antibody)
heavy chain Fd (VH-CH1), unfused: EVQLVESGGGLVQPGGSLRLSCAASGFTFSTYAMNWVRQAPGKGLEWVSRIRSKYNNYATYYADSVKDRFTISRDDSKNTLYLQMNSLRAEDTAVYYCARHGNFGNSYVSWFAYWGQGTMVTVSSASTKGPSVFPLAPCSRSTSESTAALGCLVKDYFPEPVTVSWNSGALTSGVHTFPAVLQSSGLYSLSSVVTVPSSNFGTQTYTCNVDHKPSNTKVDKTVGGGGSHHHHHHH
light chain with anti-EpCAM scFv EpCAM2.2 at the N-terminus: QVQLQESGPGLVKPSETLTLTCSVSGGSISGYYWSWIRQPPGMGLEWIGSVHHSGSTSYNPSLKSRVTISVDTSKNQFSLKLNSVTAADTAVYYCARYRGSGLDYWGQGTLVTVSSGGGGSGGGGSGGGGSQSVLTQPPSVSAAPGQKVTISCSGDSSNIGKNYVSWYQQLPGTAPKLLIYENNERPSGVPDRFSGSKSGTSATLGITGLQTGDEADYYCAAWDTSLSARVFGGGTKVTVLGRAQAVVTQEPSLTVSPGGTVTLTCRSSTGAVTTSNYANWVQQKPGQAPRGLIGGTNKRAPGTPARFSGSLLGGKAALTLSGVQPEDEAEYYCALWYSNLWVFGGGTKLTVLGQPKAAPSVTLFPPSSEELQANKATLVCLISDFYPGAVTVAWKADSSPVKAGVETTTPSKQSNNKYAASSYLSLTPEQWKSHRSYSCQVTHEGSTVEKTVAPTECS
notes: member of groups m21 and m31; also called EpCAM2.2-(L)-hu-1F3 Fab
B4: EpCAM2.2-(H)-hu-1F3.1 Fab (bispecific antibody)
heavy chain Fd with anti-EpCAM scFv EpCAM2.2 at the N-terminus: QVQLQESGPGLVKPSETLTLTCSVSGGSISGYYWSWIRQPPGMGLEWIGSVHHSGSTSYNPSLKSRVTISVDTSKNQFSLKLNSVTAADTAVYYCARYRGSGLDYWGQGTLVTVSSGGGGSGGGGSGGGGSQSVLTQPPSVSAAPGQKVTISCSGDSSNIGKNYVSWYQQLPGTAPKLLIYENNERPSGVPDRFSGSKSGTSATLGITGLQTGDEADYYCAAWDTSLSARVFGGGTKVTVLGRAEVQLVESGGGLVQPGGSLRLSCAASGFTFSTYAMNWVRQAPGKGLEWVSRIRSKYNNYATYYADSVKDRFTISRDDSKNTLYLQMNSLRAEDTAVYYCARHGNFGNSYVSWFAYWGQGTMVTVSSASTKGPSVFPLAPCSRSTSESTAALGCLVKDYFPEPVTVSWNSGALTSGVHTFPAVLQSSGLYSLSSVVTVPSSNFGTQTYTCNVDHKPSNTKVDKTVGGGGSHHHHHHH
light chain, unfused: QAVVTQEPSLTVSPGGTVTLTCRSSTGAVTTSNYANWVQQKPGQAPRGLIGGTNKRAPGTPARFSGSLLGGKAALTLSGVQPEDEAEYYCALWYSNLWVFGGGTKLTVLGQPKAAPSVTLFPPSSEELQANKATLVCLISDFYPGAVTVAWKADSSPVKAGVETTTPSKQSNNKYAASSYLSLTPEQWKSHRSYSCQVTHEGSTVEKTVAPTECS
notes: member of groups m21 and m31

Columns and labels:
[1] = biological target: T1, human CD3epsilonAA1-27.Fc (human); experiment: ELISA, immobilised antigen, biotinylated protein, streptavidin-HRP, ABTS, OD405
T1 construct: also called recombinant human CD3epsilon N-terminal peptide (aa1-27.Fc fusion); CD3epsilon N-terminal amino acid 1-27 peptide Fc fusion

[2] = biological target: T2, full length human EpCAM on CHO cells (human, UniProt P16422 24-314); experiment: flow cytometry on CHO cells stably expressing full length human EpCAM, PE detection
T2 construct: CHO cells stably expressing full length human EpCAM; also called hu-EpCAM-FL; human EpCAM-FL
T2 sequence: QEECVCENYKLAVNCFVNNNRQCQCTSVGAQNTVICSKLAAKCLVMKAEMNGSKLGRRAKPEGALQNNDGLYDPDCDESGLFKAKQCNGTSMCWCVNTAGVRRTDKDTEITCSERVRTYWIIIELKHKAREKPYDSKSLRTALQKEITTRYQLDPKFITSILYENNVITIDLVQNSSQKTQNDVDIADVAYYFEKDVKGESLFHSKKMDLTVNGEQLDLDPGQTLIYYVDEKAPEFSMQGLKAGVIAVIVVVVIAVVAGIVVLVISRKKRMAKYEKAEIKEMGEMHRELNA

[3] = biological target: T3, recombinant cyno CD3epsilon/delta Fc(K-H) heterodimer (cynomolgus); experiment: ELISA, immobilised antigen, biotinylated protein, streptavidin-HRP, ABTS, OD405
T3 construct: also called cynomolgus CD3epsilon/delta; recombinant cyno CD3epsilon/delta heterodimeric Fc protein; copies: 1 + 1

[4] = biological target: T4, human CD3 on cells (Jurkat cells; T cells in human PBMCs) (human, UniProt P07766 23-207); experiment: flow cytometry on Jurkat cells, biotinylated protein, streptavidin-PE
T4 construct: whole, on cells; the other chains of the complex are present on the cells; also called CD3 on Jurkat cells; CD3 on T cells in PBMC preparation

[5] = biological target: T3, recombinant cyno CD3epsilon/delta …; experiment: ELISA, immobilised antigen, biotinylated protein, streptavidin-HRP, ABTS, OD405; remark: listed apart in the source
[6] = biological target: T2, full length human EpCAM on CHO cells; experiment: flow cytometry on CHO cells stably expressing full length human EpCAM, PE detection; remark: listed apart in the source
[7] = biological target: T1, human CD3epsilonAA1-27.Fc; experiment: ELISA, immobilised antigen, biotinylated protein, streptavidin-HRP, ABTS, OD405; remark: listed apart in the source

Binder | binding result [1] | binding result [2] | binding result [3] | binding result [4] | binding result [5] | binding result [6] | EC50 (read off the curve) [7] [nM] | EC50 (read off the curve) [5] [nM]
B1 | no binding (tested: about 80 nM (last point; axis to 100 nM)) | binds | no binding (tested: about 80 nM (last point; axis to 100 nM)) | no binding | – | – | – | –
B2 | no binding (tested: about 80 nM (last point; axis to 100 nM)) | binds | no binding (tested: about 80 nM (last point; axis to 100 nM)) | no binding | – | – | – | –
B3 | – | – | – | – | binds | binds | ~2 | –
B4 | – | – | – | – | – | binds | – | ~2

Reference: patent US20210393776A1 (FABION PHARMACEUTICALS, published 2021)
